Test results taken from the RNAGym collection of RNA variant scans (doi:10.1093/molbev/msab373).

B1: Azoarcus group I ribozyme (parent)
chain: GUGCCUUGCGCCGGGAAACCACGCAAGGGAUGGUGUCAAAUUCGGCGAAACCUAAGCGCCCGCCCGGGCGUAUGGCAACGCCGAGCCAAGCUUCGGCGCCUGCGCCGAUGAAGGUGUAGAGACUAGACGGCACCCACCUAAGGCAAACGCUAUGGUGAAGGCAUAGUCCAGGGAGUGGCGAAAGUCACACAAACCGG

Variants of: B1
Test: reverse-splicing fitness (ratio to wild type); higher = more active; in vitro selection; Mg2+ level not given
Summary of the method: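 An in vitro group I ribozyme library with randomized positions was T7-transcribed and gel-purified. In triplicate, 10 pmol RNA in EPPS pH 7.5 was reacted with 50 pmoles of a 30-nt RNA substrate for 1 h at 37 °C across several added MgCl2 levels (1–48 mM), then stopped with EDTA. Products were reverse transcribed from a substrate-complementary primer, PCR-amplified and sequenced (HiSeq 4000). Fitness is a variant's read proportion after selection over that before, normalised to wild type.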

Row | Variant | reverse-splicing fitness
1 | C82A A120G A145G C150G C169A U176C | 0.0128
2 | C82A A120G C150G | 0.00747
3 | C82A A120G C150A | 0.0107
4 | C82A A120G C150U | 0.0158
5 | C82A A120G A145U C150U C169G U176C | 0.0154
6 | C82A A120G A145U C150U C169G U176G | 0.00454
7 | C82A A120G A145U C150U C169G U176A | 0.0114
8 | C82A A120G C150A C169A | 0.011
9 | C82A A120G C150A C169G | 0.0102
10 | C82A A120G C150A C169U | 0.0102
11 | C82A A120U A145C C150A C169G | 0.00223
12 | C82A A120U A145C C150A C169U | 0.00225
13 | C82A A120U A145C C150A C169A | 0.00256
14 | C82A A120G A145C C150A C169G | 0.00852
15 | C82A A120G A145C C150A C169U | 0.00736
16 | C82A A120G A145C C150A C169A | 0.00694
17 | C82A A120G A145G C150U C169A | 0.0179
18 | C82A A120G A145G C150U C169U | 0.016
19 | C82A A120G A145G C150U C169G | 0.0197
20 | C82A A120G A145C C169A U176G | 0.00327
21 | C82A A120G A145C C169A U176C | 0.00741

Row | Variant | reverse-splicing fitness
22 | C82A A120G A145C C169A U176A | 0.00955
23 | C82A A120G C169G U176C | 0.0274
24 | C82A A120G C169G U176A | 0.0203
25 | C82A A120G C169G U176G | 0.00368
26 | C82A A120G A145G C169U U176C | 0.0195
27 | C82A A120G A145G C169U U176G | 0.0046
28 | C82A A120G A145G C169U U176A | 0.022
29 | C82A A120G A145G C150A C169G U176G | 0.00523
30 | C82A A120G A145G C150A C169G U176C | 0.0247
31 | C82A A120G A145G C150A C169G U176A | 0.018
32 | C82A A120U A145C C169A U176G | 0.00126
33 | C82A A120U A145C C169A U176C | 0.0019
34 | C82A A120U A145C C169A U176A | 0.00193
35 | C82A A120G C150U C169G U176A | 0.0162
36 | C82A A120G C150U C169G U176G | 0.00468
37 | C82A A120G C150U C169G U176C | 0.0193
38 | C82A A120C C169U U176G | 0.00416
39 | C82A A120C C169U U176A | 0.0172
40 | C82A A120C C169U U176C | 0.0151
41 | C82A A120G A145C C150U C169A U176G | 0.00425
42 | C82A A120G A145C C150U C169A U176C | 0.00527

Row | Variant | reverse-splicing fitness
43 | C82A A120G A145C C150U C169A U176A | 0.0121
44 | C82A A120U A145C | 0.128
45 | C82A A120U A145G | 0.142
46 | C82A A120U A145C C150G | 0.0172
47 | C82A A120U A145C C150A | 0.00898
48 | C82A A120U A145C C150U | 0.0294
49 | C82A A120U A145C C169U | 0.00406
50 | C82A A120U A145C C169G | 0.0041
51 | C82A A120U A145C C169A | 0.00194
52 | C82A A120G A145G C150A | 0.0101
53 | C82A A120G A145G C150U | 0.0203
54 | C82A A120G A145G C150G | 0.00892
55 | C82A A120U A145G C150A C169G | 0.00494
56 | C82A A120U A145G C150A C169A | 0.00563
57 | C82A A120G U176A | 0.0137
58 | C82A A120G U176C | 0.0184
59 | C82A A120G U176G | 0.00511
60 | C82A A120G A145U C150A C169G U176G | 0.00358
61 | C82A A120G A145U C150A C169G U176A | 0.0133
62 | C82A A120G A145U C150A C169G U176C | 0.0154
63 | C82A A120U A145C C150G C169U U176A | 0.00283

Row | Variant | reverse-splicing fitness
64 | C82A A120U A145C C150G C169U U176C | 0.00254
65 | C82A A120U A145C C150G C169U U176G | 0.00175
66 | C82A A120U A145G C150A | 0.0231
67 | C82A A120G A145U C150A U176C | 0.0131
68 | C82A A120G A145U C150A U176G | 0.00503
69 | C82A A120G A145U C150A U176A | 0.0108
70 | C82A A120G A145U C150A C169A U176A | 0.0132
71 | C82A A120G A145U C150A C169A U176G | 0.00386
72 | C82A A120G A145U C150A C169A U176C | 0.0115
73 | C82A A120G A145C C150G U176A | 0.00476
74 | C82A A120G A145C C150G U176C | 0.00686
75 | C82A A120G A145C C150G U176G | 0.00304
76 | C82A A120G A145G C150A C169A | 0.0112
77 | C82A A120G A145G C150A C169G | 0.0104
78 | C82A A120G A145G C150A C169U | 0.00961
79 | C82A A120G A145U C150A C169U | 0.0066
80 | C82A A120G A145U C150A C169G | 0.00799
81 | C82A A120G A145U C150A C169A | 0.00876
82 | C82A A120G A145C C150U C169U U176G | 0.00407
83 | C82A A120G A145C C150U C169U U176A | 0.0197
84 | C82A A120G A145C C150U C169U U176C | 0.0106
